Results from article PMC9445180.

What was measured:
[1] = target: HTRA2^PD/PDZ-ΔLoopA (human) (UniProt O43464); assay: SEC; HTRA proteins and their LoopA deletion mutants alone; Superdex 200 Increase 3.2/300; 200 mM NaCl, 20 mM HEPES pH 7.5, 0.25% CHAPS; size against gel filtration standard
[2] = target: HTRA3^PD/PDZ-ΔLoopA (human) (UniProt P83110); assay: as above

“HTRA2^PD/PDZ-ΔLoopA (from UniProt O43464 134-458) (domain or fragment)” was tested, and the stoichiometry N [1] was 3.
In the case of “HTRA3^PD/PDZ-ΔLoopA (from UniProt P83110 130-453) (domain or fragment)”, the stoichiometry N [2] is reported as 3.
